Laboratory results as given in the Immune Epitope Database (IEDB).

Columns and labels:
Experiment in all cases: IEDB peptide-MHC binding, purified MHC/competitive/radioactivity; filed as Kd, often an IC50 or EC50 that approximates it; ≥ and ≤ were set here for values at or beyond the usual limits of such assays
[1] = target: HLA-A*31:01
[2] = target: HLA-A*03:01
[3] = target: HLA-A*11:01
[4] = target: HLA-A*33:01
[5] = target: HLA-A*68:01
[6] = source organism: Dengue virus 3 Martinique/1243/1999
[7] = source organism: Dengue virus 4 Dominica/814669/1981
[8] = source organism: SARS coronavirus Tor2
[9] = source organism: Vaccinia virus WR
[10] = source organism: Mammarenavirus guanaritoense
[11] = source organism: Dengue virus 1 Brazil/97-11/1997

Row | Sequence | Kd [2, 9] [nM] | Kd [3, 9] [nM] | Kd [1, 9] [nM] | Kd [4, 9] [nM] | Kd [5, 9] [nM] | also measured
1 | AALAFHLTSR | – | – | – | – | – | Kd [1, 6]: 17.5 nM
2 | AALSEGVYR | – | – | – | – | – | Kd [1, 7]: 169 nM
3 | AAMQRKLEK | – | – | – | – | – | Kd [2, 8]: 7010 nM; Kd [3, 8]: 257 nM; Kd [1, 8]: ≥ 21200 nM; Kd [4, 8]: ≥ 77700 nM; Kd [5, 8]: ≥ 77700 nM
4 | AARILSEKRK | 7880 | 3140 | ≥ 63700 | ≥ 70000 | 8050 | –
5 | ACRCGRFQK | – | – | – | – | – | Kd [2, 10]: 3570 nM; Kd [3, 10]: 5130 nM; Kd [1, 10]: 1440 nM; Kd [4, 10]: ≥ 27300 nM
6 | AISGDDCVVK | – | – | – | – | – | Kd ([3]; source organism: Dengue virus 2 Jamaica/1409/1983): 2070 nM
7 | ALCEKALKY | – | – | – | – | – | Kd [2, 8]: 234 nM; Kd [3, 8]: 1440 nM; Kd [1, 8]: ≥ 65100 nM; Kd [4, 8]: ≥ 35800 nM; Kd [5, 8]: 13000 nM
8 | AMDEFIQRYK | – | – | – | – | – | Kd [2, 8]: 39 nM; Kd [3, 8]: 59 nM; Kd [1, 8]: 221 nM; Kd [4, 8]: 13300 nM; Kd [5, 8]: 8300 nM
9 | AQCFKMFYK | – | – | – | – | – | Kd [2, 8]: 25.6 nM; Kd [3, 8]: 2.52 nM; Kd [1, 8]: 6.24 nM; Kd [4, 8]: 878 nM; Kd [5, 8]: 177 nM
10 | ASKTINALVY | 761 | 1010 | 11100 | ≥ 70000 | ≥ 41800 | –
11 | AVFKNSFLGK | – | – | – | – | – | Kd ([2]; source organism: Variola virus): ≥ 70000 nM; Kd ([3]; source organism: Variola virus): ≥ 69700 nM; Kd ([1]; source organism: Variola virus): ≥ 70000 nM; Kd ([4]; source organism: Variola virus): ≥ 70000 nM; Kd ([5]; source organism: Variola virus): ≥ 70100 nM
12 | CLEWLRAKRK | 1000 | 19500 | 2720 | 11300 | ≥ 57300 | –
13 | CTTTGEHRR | – | – | – | – | – | Kd ([5]; source organism: Dengue virus 2 Peru/IQT2913/1996): 27.6 nM
14 | DADPPIPYSR | ≥ 70100 | 16400 | 10100 | 2690 | 509 | –
15 | DARYCSEFIR | ≥ 70100 | ≥ 37200 | 1130 | 24.3 | 249 | –
16 | DICSKHMDAR | ≥ 47100 | ≥ 69800 | 1480 | 126 | 605 | –
17 | DLPSGFNTLK | – | – | – | – | – | Kd [2, 8]: 2300 nM; Kd [3, 8]: 1220 nM; Kd [1, 8]: ≥ 36700 nM; Kd [4, 8]: 10400 nM; Kd [5, 8]: 11 nM
18 | DSIKDVIHDY | ≥ 70100 | 5140 | 15400 | ≥ 70000 | 10200 | –
19 | DVDIYDAVR | ≥ 53300 | ≥ 77900 | 14000 | 2280 | 179 | –

Row | Sequence | Kd [2, 9] [nM] | Kd [3, 9] [nM] | Kd [1, 9] [nM] | Kd [4, 9] [nM] | Kd [5, 9] [nM] | also measured
20 | DVQRTRCKY | ≥ 53900 | ≥ 77900 | ≥ 77900 | ≥ 35300 | 9190 | –
21 | EFKEFAAGRR | – | – | – | – | – | Kd [4, 11]: 37.6 nM
22 | EIIFLKLFK | 16.1 | 1.25 | 602 | 99.3 | 0.699 | –
23 | EIIFLKLFKK | 88.2 | 17.7 | 20 | 129 | 5.36 | –
24 | EIKQGRVNK | 640 | 517 | ≥ 51300 | 3260 | 88.4 | –
25 | EKVETWALR | – | – | – | – | – | Kd [4, 6]: 74.9 nM; Kd [5, 6]: ≥ 22900 nM
26 | FALKKLIIDR | ≥ 70100 | 2100 | 1070 | 3300 | 550 | –
27 | FIDRGSIKIK | 495 | 708 | 2230 | 3960 | 860 | –
28 | FTQHLLNIR | ≥ 78000 | ≥ 77900 | ≥ 77900 | ≥ 77700 | ≥ 77700 | –
29 | GSWATSSFR | 111 | 7.38 | 0.56 | 226 | 54.1 | –
30 | GYVLGVFLR | – | – | – | – | – | Kd [1, 7]: 53.2 nM; Kd [4, 7]: 1820 nM
31 | HLKCRLKMDK | – | – | – | – | – | Kd [2, 11]: 68 nM
32 | IANSNIIKNK | 47.2 | 39.5 | 19900 | ≥ 39300 | 212 | –
33 | IFFTTSLFLH | – | – | – | – | – | Kd [2, 10]: 1030 nM; Kd [3, 10]: 17600 nM; Kd [1, 10]: 1360 nM; Kd [4, 10]: 1040 nM; Kd [5, 10]: 3490 nM
34 | IFMRDWNSK | 11700 | 8210 | 8520 | 8940 | 2390 | –
35 | IQRFSSLRR | 125 | 1010 | 55.9 | ≥ 30400 | 11900 | –
36 | IQVTISSYK | – | – | – | – | – | Kd [2, 8]: 15.4 nM; Kd [3, 8]: 10.8 nM; Kd [1, 8]: 139 nM; Kd [4, 8]: 7950 nM; Kd [5, 8]: 274 nM
37 | KAEMQLKIDK | 3720 | 125 | 3270 | 19800 | ≥ 25200 | –
38 | KFGNSINVK | 7140 | 6460 | 618 | ≥ 77700 | ≥ 46400 | –
